Measurements: publication PMC7565926, “Oncogenic Orphan Nuclear Receptor NR4A3 Interacts and Cooperates with MYB in Acinic Cell Carcinoma” (Cancers, 2020)

Target: HA-tagged NR4A3 (UniProt Q92570 1-626)
Assay: cell-based or functional assay

HA-tagged NR4A3, sequence (Q92570 whole entry): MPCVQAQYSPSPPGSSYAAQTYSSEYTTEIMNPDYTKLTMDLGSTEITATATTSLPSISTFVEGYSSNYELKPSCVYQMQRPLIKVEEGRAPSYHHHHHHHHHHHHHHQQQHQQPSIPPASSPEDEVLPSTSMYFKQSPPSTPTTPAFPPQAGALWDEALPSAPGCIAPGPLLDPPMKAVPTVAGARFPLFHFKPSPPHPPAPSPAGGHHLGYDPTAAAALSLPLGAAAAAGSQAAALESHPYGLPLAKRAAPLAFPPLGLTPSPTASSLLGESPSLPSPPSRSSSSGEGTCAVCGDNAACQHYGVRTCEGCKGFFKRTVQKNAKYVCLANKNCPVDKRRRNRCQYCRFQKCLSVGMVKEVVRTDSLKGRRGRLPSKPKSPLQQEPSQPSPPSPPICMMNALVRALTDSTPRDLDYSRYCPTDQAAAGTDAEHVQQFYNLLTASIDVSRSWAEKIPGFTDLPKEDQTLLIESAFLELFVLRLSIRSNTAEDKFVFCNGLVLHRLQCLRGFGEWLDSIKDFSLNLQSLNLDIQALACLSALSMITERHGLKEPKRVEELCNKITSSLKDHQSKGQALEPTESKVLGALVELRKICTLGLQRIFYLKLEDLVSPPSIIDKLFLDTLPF

activation of the NurRE luciferase reporter in HeLa cells on co-expression of full-length Myb with NR4A3 (NR4A3 by itself 6-fold): 27 fold
B1: Myb (natural protein)
chain: not shown
